Values belong to the binder of their own block, whether it stands above or below them.
What was measured:
[1] = target: T1, mouse CD200R1 protein (R&D systems, 2554-CD) (mouse, UniProt Q9ES57 26-238, limits assumed); experiment: ELISA, plate-bound mouse CD200R1 (2 ug/mL), IgG 0.0192-300 nM, OD 450 nm; panel 'mouse CD200R1'
T1 construct: Bought; construct not described
T1 sequence (looked up): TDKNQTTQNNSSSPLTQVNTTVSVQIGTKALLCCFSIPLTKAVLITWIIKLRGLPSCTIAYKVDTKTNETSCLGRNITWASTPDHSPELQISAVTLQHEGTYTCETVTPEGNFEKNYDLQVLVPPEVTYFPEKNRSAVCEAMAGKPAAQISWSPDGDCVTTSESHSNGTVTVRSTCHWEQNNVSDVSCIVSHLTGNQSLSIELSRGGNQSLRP
Protocol: 96-well plates were coated with human CD200R1 (R&D systems, 3414-CD) and mouse CD200R1 protein (R&D systems, 2554-CD) at a concentration of 2 μg/mL at 4° C. for 16 hours and then were blocked with 3% skim milk.
Color was developed with a TMB substrate solution (Thermo Scientific, 34029, 1-Step™ TMB-ELISA Ultra Substrate Solution). The color reaction was stopped with stop solution (Invitrogen, SS04, ELISA Stop Solution). The absorbance was measured at an optical density of 450 nm.

[2] = target: T2, human CD200RLa (Sino Biological, 11620-H08H) recombinant protein (human, UniProt Q6Q8B3 24-239); experiment: ELISA, plate-bound human CD200RLa (2 ug/mL), antibody 0.0192-300 nM, O.D 450 nm; panel 'recombinant human CD200RLa'
T2 construct: Bought; construct not described
T2 sequence (looked up): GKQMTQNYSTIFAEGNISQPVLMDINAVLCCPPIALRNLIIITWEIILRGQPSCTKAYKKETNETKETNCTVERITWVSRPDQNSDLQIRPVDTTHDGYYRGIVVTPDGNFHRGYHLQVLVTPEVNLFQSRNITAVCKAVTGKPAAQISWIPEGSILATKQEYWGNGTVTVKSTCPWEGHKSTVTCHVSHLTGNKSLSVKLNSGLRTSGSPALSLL
Protocol: 96-well plates were coated with human CD200RLa (Sino Biological, 11620-H08H) and monkey CD200RLa (Sino Biological, 11576-C02H) recombinant proteins at a concentration of 2 μg/mL at 4° C. for 16 hours, and blocked with 3% skim milk for 1 hour. […] Color was developed with a TMB substrate solution (Thermo Scientific, 34029, 1-Step™ Ultra TMB-ELISA Substrate Solution). The color reaction was stopped with stop solution (Invitrogen, SS04, ELISA Stop Solution).

[3] = target: T3, human CD200R1 expressed on cells (Jurkat-CD200R1, U937-CD200R1, HH cells) (human, UniProt Q8TD46 25-348); experiment: flow cytometry, HH cells; drawn table, row EC50
T3 construct: whole, on cells; also called HH (CRL-2105); cell surface-expressed CD200R1
T3 sequence (looked up): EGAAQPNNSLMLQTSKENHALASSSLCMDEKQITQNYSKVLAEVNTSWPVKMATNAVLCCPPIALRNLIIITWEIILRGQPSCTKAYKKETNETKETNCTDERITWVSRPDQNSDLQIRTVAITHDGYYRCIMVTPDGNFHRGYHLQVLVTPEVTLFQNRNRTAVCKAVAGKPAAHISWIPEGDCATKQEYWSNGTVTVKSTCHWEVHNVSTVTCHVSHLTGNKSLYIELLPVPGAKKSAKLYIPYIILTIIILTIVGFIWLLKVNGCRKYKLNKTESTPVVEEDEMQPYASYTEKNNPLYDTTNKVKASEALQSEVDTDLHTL

[4] = target: T3, human CD200R1 expressed on cells …; experiment: flow cytometry, HH cells; drawn table

binding result [1]: no binding (tested: 300 nM)
binding result [2]: no binding (tested: 300 nM)
B1: P001013 (IgG) (antibody, V domains shown)
VH: EVQLLESGGGLVQPGGSLRLSCAASGFTFSGYDMSWVRQAPGKGLEWVSGIPPGDGSTYYADSVKGRFTISRDNSKNTLYLQMNSLRAEDTAVYYCAKHLVSDHPPSQYSDDGMDVWGQGTLVTVSS
VL: QSVLTQPPSASGTPGQRVTISCSGSSSNIGNNDVNWYQQLPGTAPKLLIYYNSQRPSGVPDRFSGSKSGTSASLAISGLRSEDEADYYCGSWDYSLNGYVFGGGTKLTVL

binding result [2]: no binding (tested: 300 nM)
B2: P001017 (chimeric OX108) (antibody, V domains shown)
VH: EVKLQQSGPELVKPGASVKMSCKASGYTFTSYVMHWVKQKPGQGLEWIGYINPYNDDTNYNEKFKGKATLTSDKSSSTAYMELSSLTSEDSAVYYCAREDYYGSRWGYWGQGTTLTVSS
VL: DIVLTQSPASLAVSLGQRATISCRASKSVSTSGYSYMHWYQQKPGQPPKLLIYLASNLESGVPARFSGSGSGTDFTLNIHPVEEEDAATYYCQHSRELLTFGAGTKLELK
notes: also called QX108; murine anti-CD200R1 antibody OX108

B3: P001018 scFv mutant H3-Y102K (scFv)
scFv: QVQLVQSGAEVKKPGASVKVSCKASGYTFTSYVMHWVRQAPGQGLEWMGYINPYNDDTNYNEKFKGRVTMTRDTSTSTVYMELSSLRSEDTAVYYCAREDYYGSRWGKWGQGTLVTVSSGGGGSGGGGSGGGGSDIVLTQSPASLAVSPGQRATITCRASKSVSTSGYSYMHWYQQKPGQPPKLLIYLASNLESGVPARFSGSGSGTDFTLTINPVEANDTANYYCQHSRELLTFGQGTKVEIK
EC50 [3]: 9.79 nM
Geo mean (%) at 0.05 nM [4]: 2.1%
Geo mean (%) at 0.19 nM [4]: 6.1%
Geo mean (%) at 0.78 nM [4]: 17.1%
Geo mean (%) at 3.125 nM [4]: 35.3%
Geo mean (%) at 12.5 nM [4]: 67%
Geo mean (%) at 50 nM [4]: 85.7%
Geo mean (%) at 200 nM [4]: 104%
Geo mean (%) at 800 nM [4]: 120%

B4: P001018 scFv mutant H3-Y102T (scFv)
scFv: QVQLVQSGAEVKKPGASVKVSCKASGYTFTSYVMHWVRQAPGQGLEWMGYINPYNDDTNYNEKFKGRVTMTRDTSTSTVYMELSSLRSEDTAVYYCAREDYYGSRWGTWGQGTLVTVSSGGGGSGGGGSGGGGSDIVLTQSPASLAVSPGQRATITCRASKSVSTSGYSYMHWYQQKPGQPPKLLIYLASNLESGVPARFSGSGSGTDFTLTINPVEANDTANYYCQHSRELLTFGQGTKVEIK
EC50 [3]: 9.43 nM
Geo mean (%) at 0.05 nM [4]: 2%
Geo mean (%) at 0.19 nM [4]: 5.8%
Geo mean (%) at 0.78 nM [4]: 15.5%
Geo mean (%) at 3.125 nM [4]: 33.2%
Geo mean (%) at 12.5 nM [4]: 69.7%
Geo mean (%) at 50 nM [4]: 91.6%
Geo mean (%) at 200 nM [4]: 107%
Geo mean (%) at 800 nM [4]: 121%

B5: P001018 scFv mutant L3-L94H (scFv)
scFv: QVQLVQSGAEVKKPGASVKVSCKASGYTFTSYVMHWVRQAPGQGLEWMGYINPYNDDTNYNEKFKGRVTMTRDTSTSTVYMELSSLRSEDTAVYYCAREDYYGSRWGYWGQGTLVTVSSGGGGSGGGGSGGGGSDIVLTQSPASLAVSPGQRATITCRASKSVSTSGYSYMHWYQQKPGQPPKLLIYLASNLESGVPARFSGSGSGTDFTLTINPVEANDTANYYCQHSREHLTFGQGTKVEIK
EC50 [3]: 9.4 nM
Geo mean (%) at 0.05 nM [4]: 2.2%
Geo mean (%) at 0.19 nM [4]: 5.6%
Geo mean (%) at 0.78 nM [4]: 18.5%
Geo mean (%) at 3.125 nM [4]: 35.3%
Geo mean (%) at 12.5 nM [4]: 59.1%
Geo mean (%) at 50 nM [4]: 75.2%
Geo mean (%) at 200 nM [4]: 96.7%
Geo mean (%) at 800 nM [4]: 105%

B6: P001018 scFv mutant L3-R92S (scFv)
scFv: QVQLVQSGAEVKKPGASVKVSCKASGYTFTSYVMHWVRQAPGQGLEWMGYINPYNDDTNYNEKFKGRVTMTRDTSTSTVYMELSSLRSEDTAVYYCAREDYYGSRWGYWGQGTLVTVSSGGGGSGGGGSGGGGSDIVLTQSPASLAVSPGQRATITCRASKSVSTSGYSYMHWYQQKPGQPPKLLIYLASNLESGVPARFSGSGSGTDFTLTINPVEANDTANYYCQHSSELLTFGQGTKVEIK
EC50 [3]: 7.76 nM
Geo mean (%) at 0.05 nM [4]: 1.7%
Geo mean (%) at 0.19 nM [4]: 4.5%
Geo mean (%) at 0.78 nM [4]: 12%
Geo mean (%) at 3.125 nM [4]: 33.9%
Geo mean (%) at 12.5 nM [4]: 73.2%
Geo mean (%) at 50 nM [4]: 90.1%
Geo mean (%) at 200 nM [4]: 108%
Geo mean (%) at 800 nM [4]: 116%

B7: P001018 scFv mutant L3-T96R (scFv)
scFv: QVQLVQSGAEVKKPGASVKVSCKASGYTFTSYVMHWVRQAPGQGLEWMGYINPYNDDTNYNEKFKGRVTMTRDTSTSTVYMELSSLRSEDTAVYYCAREDYYGSRWGYWGQGTLVTVSSGGGGSGGGGSGGGGSDIVLTQSPASLAVSPGQRATITCRASKSVSTSGYSYMHWYQQKPGQPPKLLIYLASNLESGVPARFSGSGSGTDFTLTINPVEANDTANYYCQHSRELLRFGQGTKVEIK
EC50 [3]: 7.26 nM
Geo mean (%) at 0.05 nM [4]: 2.7%
Geo mean (%) at 0.19 nM [4]: 7.5%
Geo mean (%) at 0.78 nM [4]: 19.4%
Geo mean (%) at 3.125 nM [4]: 40.2%
Geo mean (%) at 12.5 nM [4]: 79.5%
Geo mean (%) at 50 nM [4]: 91.1%
Geo mean (%) at 200 nM [4]: 116%
Geo mean (%) at 800 nM [4]: 123%

B8: P001018 scFv mutant L3-L94S (scFv)
scFv: QVQLVQSGAEVKKPGASVKVSCKASGYTFTSYVMHWVRQAPGQGLEWMGYINPYNDDTNYNEKFKGRVTMTRDTSTSTVYMELSSLRSEDTAVYYCAREDYYGSRWGYWGQGTLVTVSSGGGGSGGGGSGGGGSDIVLTQSPASLAVSPGQRATITCRASKSVSTSGYSYMHWYQQKPGQPPKLLIYLASNLESGVPARFSGSGSGTDFTLTINPVEANDTANYYCQHSRESLTFGQGTKVEIK
EC50 [3]: 9.52 nM
Geo mean (%) at 0.05 nM [4]: 1.8%
Geo mean (%) at 0.19 nM [4]: 5.9%
Geo mean (%) at 0.78 nM [4]: 17.3%
Geo mean (%) at 3.125 nM [4]: 35.5%
Geo mean (%) at 12.5 nM [4]: 62%
Geo mean (%) at 50 nM [4]: 76.6%
Geo mean (%) at 200 nM [4]: 98.7%
Geo mean (%) at 800 nM [4]: 110%

B9: P001018 scFv mutant L3-L95D (scFv)
scFv: QVQLVQSGAEVKKPGASVKVSCKASGYTFTSYVMHWVRQAPGQGLEWMGYINPYNDDTNYNEKFKGRVTMTRDTSTSTVYMELSSLRSEDTAVYYCAREDYYGSRWGYWGQGTLVTVSSGGGGSGGGGSGGGGSDIVLTQSPASLAVSPGQRATITCRASKSVSTSGYSYMHWYQQKPGQPPKLLIYLASNLESGVPARFSGSGSGTDFTLTINPVEANDTANYYCQHSRELDTFGQGTKVEIK
EC50 [3]: 13.1 nM
Geo mean (%) at 0.05 nM [4]: 2%
Geo mean (%) at 0.19 nM [4]: 5.6%
Geo mean (%) at 0.78 nM [4]: 16.4%
Geo mean (%) at 3.125 nM [4]: 35.6%
Geo mean (%) at 12.5 nM [4]: 73.8%
Geo mean (%) at 50 nM [4]: 95.3%
Geo mean (%) at 200 nM [4]: 119%
Geo mean (%) at 800 nM [4]: 145%

B10: P001018 scFv mutant L3-R92H (scFv)
scFv: QVQLVQSGAEVKKPGASVKVSCKASGYTFTSYVMHWVRQAPGQGLEWMGYINPYNDDTNYNEKFKGRVTMTRDTSTSTVYMELSSLRSEDTAVYYCAREDYYGSRWGYWGQGTLVTVSSGGGGSGGGGSGGGGSDIVLTQSPASLAVSPGQRATITCRASKSVSTSGYSYMHWYQQKPGQPPKLLIYLASNLESGVPARFSGSGSGTDFTLTINPVEANDTANYYCQHSHELLTFGQGTKVEIK
EC50 [3]: 6.14 nM
Geo mean (%) at 0.05 nM [4]: 3.3%
Geo mean (%) at 0.19 nM [4]: 8.7%
Geo mean (%) at 0.78 nM [4]: 19.8%
Geo mean (%) at 3.125 nM [4]: 43.8%
Geo mean (%) at 12.5 nM [4]: 84.1%
Geo mean (%) at 50 nM [4]: 100%

— patent US20260263521A1 (AIMED BIO, published 2026)
